Test results: paper doi:10.1101/681668 (bioRxiv, 2019)
Changes are numbered by the printed parent chain.

Tests used:
Test in all cases: pull-down
MBP-ORC1 CDK123 = target: T1, MBP-ORC1 CDK123 (human, UniProt Q13415 1-861, S258A | S273A | T375A)
T1 sequence: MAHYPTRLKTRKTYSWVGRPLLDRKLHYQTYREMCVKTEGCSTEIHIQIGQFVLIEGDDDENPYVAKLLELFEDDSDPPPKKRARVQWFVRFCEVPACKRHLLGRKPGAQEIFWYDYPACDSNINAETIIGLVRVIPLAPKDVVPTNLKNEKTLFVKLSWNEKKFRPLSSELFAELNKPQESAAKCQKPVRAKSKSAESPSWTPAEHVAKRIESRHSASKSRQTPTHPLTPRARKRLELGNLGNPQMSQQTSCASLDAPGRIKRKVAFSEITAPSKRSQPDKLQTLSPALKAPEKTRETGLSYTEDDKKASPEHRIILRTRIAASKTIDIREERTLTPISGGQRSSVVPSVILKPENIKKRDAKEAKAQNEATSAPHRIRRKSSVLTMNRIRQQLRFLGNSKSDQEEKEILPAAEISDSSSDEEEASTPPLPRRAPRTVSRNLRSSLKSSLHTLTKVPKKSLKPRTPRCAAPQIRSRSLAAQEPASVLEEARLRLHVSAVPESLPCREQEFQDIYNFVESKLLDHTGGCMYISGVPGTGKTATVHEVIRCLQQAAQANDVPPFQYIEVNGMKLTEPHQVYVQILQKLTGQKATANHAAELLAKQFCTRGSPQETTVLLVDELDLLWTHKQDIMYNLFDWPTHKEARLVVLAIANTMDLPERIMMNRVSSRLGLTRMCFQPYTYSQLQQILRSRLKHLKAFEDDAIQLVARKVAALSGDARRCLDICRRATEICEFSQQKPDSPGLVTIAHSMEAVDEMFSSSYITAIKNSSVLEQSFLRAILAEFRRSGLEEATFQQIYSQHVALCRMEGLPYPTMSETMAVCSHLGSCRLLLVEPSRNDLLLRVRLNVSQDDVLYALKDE

MBP-ORC1 = target: T2, MBP-ORC1 (human, UniProt Q13415 1-861)
T2 sequence: T1 sequence with A258S, A273S, A375T

MBP-ORC1 CDK12 = target: T3, MBP-ORC1 CDK12 (human, UniProt Q13415 1-861, S258A | S273A)
T3 sequence: T1 sequence with A375T

binding result (MBP-ORC1 CDK123): binds
binding result (MBP-ORC1): binds
binding result (MBP-ORC1 CDK12): binds
B1: GST-CDC6 (natural protein)
chain: MPQTRSQAQATISFPKRKLSRALNKAKNSSDAKLEPTNVQTVTCSPRVKALPLSPRKRLGDDNLCNTPHLPPCSPPKQGKKENGPPHSHTLKGRRLVFDNQLTIKSPSKRELAKVHQNKILSSVRKSQEITTNSEQRCPLKKESACVRLFKQEGTCYQQAKLVLNTAVPDRLPAREREMDVIRNFLREHICGKKAGSLYLSGAPGTGKTACLSRILQDLKKELKGFKTIMLNCMSLRTAQAVFPAIAQEICQEEVSRPAGKDMMRKLEKHMTAEKGPMIVLVLDEMDQLDSKGQDVLYTLFEWPWLSNSHLVLIGIANTLDLTDRILPRLQAREKCKPQLLNFPPYTRNQIVTILQDRLNQVSRDQVLDNAAVQFCARKVSAVSGDVRKALDVCRRAIEIVESDVKSQTILKPLSECKSPSEPLIPKRVGLIHISQVISEVDGNRMTLSQEGAQDSFPLQQKILVCSLMLLIRQLKIKEVTLGKLYEAYSKVCRKQQVAAVDQSECLSLSGLLEARGILGLKRNKETRLTKVFFKIEEKEIEHALKDKALIGNILATGLP
